Data published in patent publication US20230025600A1, “TREATMENT OF CANCERS WITH ANTIBODY DRUG CONJUGATES (ADC) THAT BIND TO 191P4D12 PROTEINS” (AGENSYS, INC., priority 2019, published 2023).

Tests used:
[1] = EV-201 adverse reactions; assay type: in vivo, human
Method: The data described in this section reflect exposure to PADCEV from EV-201, a single arm study in patients (n=125) with locally advanced or metastatic urothelial cancer who had received prior treatment with a PD-1 or PD-L1 inhibitor and platinum-based chemotherapy. Patients received PADCEV 1.25 mg/kg on Days 1, 8 and 15 of a 28-day cycle until disease progression or unacceptable toxicity. The median duration of exposure to PADCEV was 4.6 months (range: 0.5-15.6).

[2] = EV-201 laboratory abnormalities; assay type: in vivo, human
Method: The data described in this section reflect exposure to PADCEV from EV-201, a single arm study in patients (n=125) with locally advanced or metastatic urothelial cancer who had received prior treatment with a PD-1 or PD-L1 inhibitor and platinum-based chemotherapy. Patients received PADCEV 1.25 mg/kg on Days 1, 8 and 15 of a 28-day cycle until disease progression or unacceptable toxicity. The median duration of exposure to PADCEV was 4.6 months (range: 0.5-15.6). […]

[3] = Population pharmacokinetic analysis in patients; assay type: in vivo, human
Text: Population pharmacokinetic analysis included data from 369 patients based on three Phase 1 studies and one Phase 2 study. Enfortumab vedotin-ejfv pharmacokinetics were characterized after single and multiple doses in patients with locally advanced or metastatic urothelial carcinoma and other solid tumors.
Steady-state concentrations of ADC and MMAE were reached after 1 treatment cycle.

[4] = target: T1, 191P4D12 (Homo sapiens, UniProt Q96NY8); assay: Comparability: analytical and biological characterization studies; conditions: binding affinity to 191P4D12, in vitro cytotoxicity, in vivo antitumor activity
T1 sequence (Q96NY8 32-510): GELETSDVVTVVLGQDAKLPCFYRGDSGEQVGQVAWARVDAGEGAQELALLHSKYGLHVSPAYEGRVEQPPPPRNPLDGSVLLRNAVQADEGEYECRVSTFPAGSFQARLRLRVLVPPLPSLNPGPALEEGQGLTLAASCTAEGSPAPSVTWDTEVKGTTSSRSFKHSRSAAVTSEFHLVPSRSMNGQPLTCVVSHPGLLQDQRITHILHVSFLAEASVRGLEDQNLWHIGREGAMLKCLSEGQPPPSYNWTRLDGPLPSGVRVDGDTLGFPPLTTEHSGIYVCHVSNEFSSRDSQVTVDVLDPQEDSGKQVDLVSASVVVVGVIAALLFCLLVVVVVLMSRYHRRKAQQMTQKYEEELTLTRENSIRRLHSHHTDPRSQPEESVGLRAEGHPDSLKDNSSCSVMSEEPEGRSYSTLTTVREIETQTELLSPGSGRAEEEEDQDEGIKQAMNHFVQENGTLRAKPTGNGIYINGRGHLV
Text: As described above and in U.S. Pat. No. 8,637,642, AGS-22M6E is an ADC derived from a murine hybridoma cell line. Enfortumab vedotin is the a Chinese hamster ovary (CHO) cell line-derived equivalent of AGS-22M6E ADC and is an exemplary product used for human treatment. Enfortumab vedotin has the same amino acid sequence, linker and cytotoxic drug as AGS-22M6E. The comparability between enfortumab vedotin and AGS-22M6E was confirmed through extensive analytical and biological characterization studies, such as binding affinity to 191P4D12, in vitro cytotoxicity, and in vivo antitumor activity.

[5] = Storage of reconstituted vial and prepared infusion bag; assay type: physicochemical
Method: 7. Based upon the calculated dose amount, the reconstituted solution from the vial(s) should be added to the infusion bag immediately. […] If not used immediately, reconstituted vials may be stored for up to […] in refrigeration at 2° C. to 8° C. (36° F. to 46° F.). […] Discard unused vials with reconstituted solution beyond the recommended storage time.
14. If the infusion is not administered immediately, the prepared infusion bag should not be stored longer than […] at 2° C. to 8° C. (36° F. to 46° F.).

[6] = EV-201, patients who experienced rash
[7] = EV-201, denominator 121 or 122 patients
[8] = ADC, after first treatment cycle of 1.25 mg/kg, Days 1, 8 and 15

Substance: enfortumab vedotin-ejfv [PADCEV]
- herpes zoster ([1]; EV-201): 3%
- infusion site extravasation ([1]; EV-201): 2%
- median time to onset of Grade >=2 peripheral neuropathy ([1]; EV-201): 3.8 months
- median time to onset of severe skin reactions ([1]; EV-201): 0.8 months
- peripheral neuropathy: complete resolution at last evaluation ([1]; EV-201): 19%
- peripheral neuropathy: partial improvement at last evaluation ([1]; EV-201): 26%
- Alopecia, Grade >= 3 ([1]; EV-201, n = 125): 0%
- Any adverse reaction, All Grades ([1]; EV-201, n = 125): 100%
- Any adverse reaction, Grade >= 3 ([1]; EV-201, n = 125): 73%
- Decreased appetite, Grade >= 3 ([1]; EV-201, n = 125): 2%
- Dry skin, Grade >= 3 ([1]; EV-201, n = 125): 0%
- Dysgeusia, Grade >= 3 ([1]; EV-201, n = 125): 0%
- Nausea, Grade >= 3 ([1]; EV-201, n = 125): 3%
- Peripheral neuropathy (grouped term), Grade >= 3 ([1]; EV-201, n = 125): 4%
- Pruritus, All Grades ([1]; EV-201, n = 125): 26%
- Pruritus, Grade >= 3 ([1]; EV-201, n = 125): 2%
- Vomiting, All Grades ([1]; EV-201, n = 125): 18%
- Vomiting, Grade >= 3 ([1]; EV-201, n = 125): 2%
- adverse reactions leading to discontinuation ([1]; EV-201, n = 125): 16%
- adverse reactions leading to dose interruption ([1]; EV-201, n = 125): 64%
- adverse reactions leading to dose reduction ([1]; EV-201, n = 125): 34%
- dose interruption due to fatigue ([1]; EV-201, n = 125): 6%
- dose interruption due to peripheral neuropathy ([1]; EV-201, n = 125): 18%
- dose interruption due to rash ([1]; EV-201, n = 125): 9%
- dose reduction due to fatigue ([1]; EV-201, n = 125): 4%
- dose reduction due to peripheral neuropathy ([1]; EV-201, n = 125): 12%
- dose reduction due to rash ([1]; EV-201, n = 125): 6%
- fatal adverse reaction: acute respiratory failure ([1]; EV-201, n = 125): 0.8%
- fatal adverse reaction: aspiration pneumonia ([1]; EV-201, n = 125): 0.8%
- fatal adverse reaction: cardiac disorder ([1]; EV-201, n = 125): 0.8%
- fatal adverse reaction: sepsis ([1]; EV-201, n = 125): 0.8%
- fatal adverse reactions ([1]; EV-201, n = 125): 3.2%
- peripheral neuropathy leading to treatment discontinuation ([1]; EV-201, n = 125): 6%
- serious adverse reaction: diarrhea ([1]; EV-201, n = 125): 4%
- serious adverse reaction: fatigue ([1]; EV-201, n = 125): 2%
- serious adverse reaction: nausea ([1]; EV-201, n = 125): 2%
- serious adverse reaction: rash ([1]; EV-201, n = 125): 3%
- serious adverse reaction: vomiting ([1]; EV-201, n = 125): 2%
- serious adverse reactions ([1]; EV-201, n = 125, 1.25 mg/kg Days 1, 8, 15 of 28-day cycle): 46%
- rash: complete resolution [1, 6]: 65%
- rash: partial improvement [1, 6]: 22%
- patients who developed Grade 3-4 hyperglycemia ([1]; EV-201, baseline hemoglobin A1C >=8% excluded): 8%
- Creatinine increased, Grade 3-4 [2, 7]: 2%
- Creatinine increased, Grades 2-4 [2, 7]: 20%
- Glucose increased, Grade 3-4 [2, 7]: 8%
- Hemoglobin decreased, Grade 3-4 [2, 7]: 10%
- Hemoglobin decreased, Grades 2-4 [2, 7]: 34%
- Leukocytes decreased, Grade 3-4 [2, 7]: 4%
- Leukocytes decreased, Grades 2-4 [2, 7]: 14%
- Lipase increased, Grade 3-4 [2, 7]: 9%
- Lipase increased, Grades 2-4 [2, 7]: 14%
- Lymphocytes decreased, Grade 3-4 [2, 7]: 10%
- Lymphocytes decreased, Grades 2-4 [2, 7]: 32%
- Neutrophils decreased, Grade 3-4 [2, 7]: 5%
- Neutrophils decreased, Grades 2-4 [2, 7]: 14%
- Phosphate decreased, Grade 3-4 [2, 7]: 10%
- Phosphate decreased, Grades 2-4 [2, 7]: 34%
- Sodium decreased, Grade 3-4 [2, 7]: 8%
- Sodium decreased, Grades 2-4 [2, 7]: 8%
- Urate increased, Grade 3-4 [2, 7]: 7%
- Urate increased, Grades 2-4 [2, 7]: 7%
- patients with non-fasting glucose >160-250 mg/dL ([2]; EV-201, fasting glucose not measured, 23 patients): ^†CTCAE Grade 2 is defined as fasting glucose >160-250 mg/dL. Fasting glucose levels were not measured in EV-201. However, 23 (19%) patients had non-fasting glucose >160-250 mg/dL.
- exposure (AUC) in mild, moderate or severe renal impairment ([3]; 1.25 mg/kg, compared to normal renal function): No significant differences
- AUC0-28 d, Mean (±SD) [3, 8]: 111 (38) μg · d/mL
- Cmax, Mean (±SD) [3, 8]: 28 (6.8) μg/mL
- accumulation following repeat administration ([3]; patients): Minimal accumulation
- estimated mean steady-state volume of distribution ([3]; patients): 11 L
- mean clearance (CL) ([3]; patients): 0.10 L/h
- steady-state concentrations reached after ([3]; patients): 1 treatment cycle
- time of peak ADC concentrations ([3]; patients, intravenous infusion): near the end of intravenous infusion
- elimination half-life ([3]; patients, multi-exponential declines): 81.6 h
- differences in pharmacokinetics based on age (24 to 87 years), sex, or race/ethnicity ([3]; population pharmacokinetic analysis): no clinically significant differences
- comparability between enfortumab vedotin and AGS-22M6E [4]: confirmed
- storage time of prepared infusion bag ([5]; 2° C. to 8° C.): ≤ 8 h
- storage time of reconstituted vials ([5]; refrigeration at 2° C. to 8° C.): up to 4 hours
